T1: FcγRIIb, extracellular domain with C-terminal His tag (human, UniProt P31994 43-217)
T1 construct: extracellular domain; Soluble receptor expressed in FreeStyle293 cells; analyte in Biacore; also called FcgRIIb; 2b; not shown: C-terminal His tag
T1 sequence (looked up): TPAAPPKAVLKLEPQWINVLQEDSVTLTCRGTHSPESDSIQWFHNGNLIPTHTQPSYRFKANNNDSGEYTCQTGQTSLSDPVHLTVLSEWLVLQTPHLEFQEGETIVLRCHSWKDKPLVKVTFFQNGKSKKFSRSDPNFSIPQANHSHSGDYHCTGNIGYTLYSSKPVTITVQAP

T2: FcγRIIa H (FcγRIIa, type H allotype, His at position 131), extracellular domain with C-terminal His tag (human, UniProt P12318 34-217)
T2 construct: extracellular domain; Soluble receptor expressed in FreeStyle293 cells; analyte in Biacore; also called FcgRIIa H; 2aH; not shown: C-terminal His tag
T2 sequence (looked up): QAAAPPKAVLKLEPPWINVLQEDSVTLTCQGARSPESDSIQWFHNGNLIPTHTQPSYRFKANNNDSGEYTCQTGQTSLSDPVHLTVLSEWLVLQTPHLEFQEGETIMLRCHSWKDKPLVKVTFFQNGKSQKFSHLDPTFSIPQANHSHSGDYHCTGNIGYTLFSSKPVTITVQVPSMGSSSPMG

B1: GpH7-A5/GpH7-B3 variant E269_12R/GpL16-k0 (antibody, human IgG1, kappa)
heavy 1: not shown
heavy 2: not shown
light: DIVMTQSPLSLPVTPGEPASISCQASESLVHSNRNTYLHWYLQKPGQSPQLLIYKVSNRFSGVPDRFSGSGSGTDFTLKISRVEAEDVGVYYCSQNTHVPPTFGQGTKVEIERTVAAPSVFIFPPSDEQLKSGTASVVCLLNNFYPREAKVQWKVDNALQSGNSQESVTEQDSKDSTYSLSSTLTLSKADYEKHKVYACEVTHQGLSSPVTKSFNRGEC
notes: Heterodimerized IgG1; mutation only in the GpH7-B3 chain; also called He Ab
B2: GpH7-A5/GpH7-B3 variant Q295_12R/GpL16-k0 (antibody, human IgG1, kappa)
heavy 1: not shown
heavy 2: not shown
light: B1 light
notes: as for B1
B3: GpH7-A5/GpH7-B3 variant E269_13S/GpL16-k0 (antibody, human IgG1, kappa)
heavy 1: not shown
heavy 2: not shown
light: B1 light
notes: as for B1
B4: GpH7-A5/GpH7-B3 variant E269_03V/GpL16-k0 (antibody, human IgG1, kappa)
heavy 1: not shown
heavy 2: not shown
light: B1 light
notes: as for B1
B5: GpH7-A5/GpH7-B3 variant Q295_05P/GpL16-k0 (antibody, human IgG1, kappa)
heavy 1: not shown
heavy 2: not shown
light: B1 light
notes: as for B1
B6: GpH7-A5/GpH7-B3 variant S298_03V/GpL16-k0 (antibody, human IgG1, kappa)
heavy 1: not shown
heavy 2: not shown
light: B1 light
notes: as for B1
B7: GpH7-A5/GpH7-B3 variant S298_07I/GpL16-k0 (antibody, human IgG1, kappa)
heavy 1: not shown
heavy 2: not shown
light: B1 light
notes: as for B1
B8: GpH7-A5/GpH7-B3 variant E269_08L/GpL16-k0 (antibody, human IgG1, kappa)
heavy 1: not shown
heavy 2: not shown
light: B1 light
notes: as for B1
B9: GpH7-A5/GpH7-B3 variant E269_02A/GpL16-k0 (antibody, human IgG1, kappa)
heavy 1: not shown
heavy 2: not shown
light: B1 light
notes: as for B1
B10: GpH7-A5/GpH7-B3 variant E269_19Q/GpL16-k0 (antibody, human IgG1, kappa)
heavy 1: not shown
heavy 2: not shown
light: B1 light
notes: as for B1
B11: GpH7-A5/GpH7-B3 variant D270_20W/GpL16-k0 (antibody, human IgG1, kappa)
heavy 1: not shown
heavy 2: not shown
light: B1 light
notes: as for B1
B12: GpH7-A5/GpH7-B3 variant E269_20W/GpL16-k0 (antibody, human IgG1, kappa)
heavy 1: not shown
heavy 2: not shown
light: B1 light
notes: as for B1
B13: GpH7-A5/GpH7-B3 variant E269_04F/GpL16-k0 (antibody, human IgG1, kappa)
heavy 1: not shown
heavy 2: not shown
light: B1 light
notes: as for B1
B14: GpH7-A5/GpH7-B3 variant Q295_07I/GpL16-k0 (antibody, human IgG1, kappa)
heavy 1: not shown
heavy 2: not shown
light: B1 light
notes: as for B1
B15: GpH7-A5/GpH7-B3 variant D270_15Y/GpL16-k0 (antibody, human IgG1, kappa)
heavy 1: not shown
heavy 2: not shown
light: B1 light
notes: as for B1
B16: GpH7-A5/GpH7-B3 variant E269_14T/GpL16-k0 (antibody, human IgG1, kappa)
heavy 1: not shown
heavy 2: not shown
light: B1 light
notes: as for B1
B17: GpH7-A5/GpH7-B3 variant E269_15Y/GpL16-k0 (antibody, human IgG1, kappa)
heavy 1: not shown
heavy 2: not shown
light: B1 light
notes: as for B1

For one experiment, the target named is T1, FcγRIIb, extracellular domain with …. Nature of the experiment: SPR (Biacore), captured antibody, FcγR as analyte. In general terms: SPR reads the build-up and loss of mass on a sensor chip optically.
In the case of B1, the He/Con_2b is 25.2 relative, GpH7-A5/GpH7-B3/GpL16-k0 = 100.
On the same count and under the same terms, as for B2, the figure is 65.2 relative, GpH7-A5/GpH7-B3/GpL16-k0 = 100; as for B3, 47.8 relative, GpH7-A5/GpH7-B3/GpL16-k0 = 100; as for B4, 45.1 relative, GpH7-A5/GpH7-B3/GpL16-k0 = 100.
On the same count and under the same terms, as for B5, the figure is 67.5 relative, GpH7-A5/GpH7-B3/GpL16-k0 = 100; as for B6, 64.5 relative, GpH7-A5/GpH7-B3/GpL16-k0 = 100.
Turning to B7, the He/Con_2b is 70.6 relative, GpH7-A5/GpH7-B3/GpL16-k0 = 100.
Consider B8, for which the He/Con_2b is 42.9 relative, GpH7-A5/GpH7-B3/GpL16-k0 = 100.
Turning to B9, the He/Con_2b is 49.9 relative, GpH7-A5/GpH7-B3/GpL16-k0 = 100.
With B10, the He/Con_2b was 44.3 relative, GpH7-A5/GpH7-B3/GpL16-k0 = 100.
Take B11: the He/Con_2b is 34.7 relative, GpH7-A5/GpH7-B3/GpL16-k0 = 100.
In the case of B12, the He/Con_2b was 42.5 relative, GpH7-A5/GpH7-B3/GpL16-k0 = 100.
B13: the He/Con_2b is 45 relative, GpH7-A5/GpH7-B3/GpL16-k0 = 100.
On to B14, for which the He/Con_2b is 84.3 relative, GpH7-A5/GpH7-B3/GpL16-k0 = 100.
Still for that read-out and setting: under B15 stands 44.9 relative, GpH7-A5/GpH7-B3/GpL16-k0 = 100; under B16, 50.6 relative, GpH7-A5/GpH7-B3/GpL16-k0 = 100; under B17, 44.7 relative, GpH7-A5/GpH7-B3/GpL16-k0 = 100.

The target in the next experiment is T2, FcγRIIa H (FcγRIIa, type H allotype, …). Nature of the experiment: SPR (Biacore), captured antibody, FcγR as analyte.
Regarding B1, the He/Con_2aH was 46.8 relative, GpH7-A5/GpH7-B3/GpL16-k0 = 100.
Consider B2, for which the He/Con_2aH was 84.1 relative, GpH7-A5/GpH7-B3/GpL16-k0 = 100.
On to B3, for which the He/Con_2aH is 70 relative, GpH7-A5/GpH7-B3/GpL16-k0 = 100.
The same measure, in the same setting: as for B4, the figure is 67.5 relative, GpH7-A5/GpH7-B3/GpL16-k0 = 100.
Same read-out and setting: as for B5, the figure is 103 relative, GpH7-A5/GpH7-B3/GpL16-k0 = 100.
With B6, the He/Con_2aH is 85.1 relative, GpH7-A5/GpH7-B3/GpL16-k0 = 100.
On to B7, for which the He/Con_2aH was 86.9 relative, GpH7-A5/GpH7-B3/GpL16-k0 = 100.
On to B8, for which the He/Con_2aH is 67.4 relative, GpH7-A5/GpH7-B3/GpL16-k0 = 100.
On to B9, for which the He/Con_2aH is 77.8 relative, GpH7-A5/GpH7-B3/GpL16-k0 = 100.
With B10, the He/Con_2aH is 80.2 relative, GpH7-A5/GpH7-B3/GpL16-k0 = 100.
Regarding B11, the He/Con_2aH was 60.2 relative, GpH7-A5/GpH7-B3/GpL16-k0 = 100.
B12: the He/Con_2aH is 60.9 relative, GpH7-A5/GpH7-B3/GpL16-k0 = 100.
Turning to B13, the He/Con_2aH is 68.5 relative, GpH7-A5/GpH7-B3/GpL16-k0 = 100.
As for B14, the He/Con_2aH was 102 relative, GpH7-A5/GpH7-B3/GpL16-k0 = 100.
The same measure, in the same setting: as for B15, the figure is 71.9 relative, GpH7-A5/GpH7-B3/GpL16-k0 = 100; as for B16, 69.6 relative, GpH7-A5/GpH7-B3/GpL16-k0 = 100; as for B17, 70.4 relative, GpH7-A5/GpH7-B3/GpL16-k0 = 100.

Another experiment has the same target. Put plainly: ratio of He/Con_2aH to He/Con_2b (FcγRIIa H over FcγRIIb), SPR.
B1: the “He_2aH/2b (IIaH/IIb)” value stood at 1.86.
B2: the “He_2aH/2b (IIaH/IIb)” value was found to be 1.29.
With B3, the “He_2aH/2b (IIaH/IIb)” value came out at 1.46.
On the same count and under the same terms, as for B4, the figure is 1.49.
With B5, the “He_2aH/2b (IIaH/IIb)” value is 1.53.
On the same count and under the same terms, as for B6, the figure is 1.32.
For B7, the “He_2aH/2b (IIaH/IIb)” value came to 1.23.
B8: the “He_2aH/2b (IIaH/IIb)” value is 1.57.
Regarding B9, the “He_2aH/2b (IIaH/IIb)” value amounted to 1.56.
On to B10, for which the “He_2aH/2b (IIaH/IIb)” value was 1.81.
Regarding B11, the “He_2aH/2b (IIaH/IIb)” value worked out at 1.74.
Regarding B12, the “He_2aH/2b (IIaH/IIb)” value worked out at 1.43.
On to B13, for which the “He_2aH/2b (IIaH/IIb)” value worked out at 1.52.
For the molecule B14, the “He_2aH/2b (IIaH/IIb)” value stood at 1.21.
With B15, the “He_2aH/2b (IIaH/IIb)” value was 1.6.
The same measure, in the same setting: as for B16, the figure is 1.37; as for B17, 1.57.

The record behind these values is patent US20180155451A1 (published 2018).
